According to the RNAGym collection of RNA variant scans (doi:10.1073/pnas.2313332121):
Variants at the floor of the assay were thinned out.

B1: TPR 5TU (parent)
chain: GGAUCUUCUCGAUCUAACAAAAAAGACAAAUCUGCCACAAAGCUUGAGAGCAUCUUCGGAUGCAGAGGCGGCAGCCUUCGGUGGCGCGAUAGCGCCAACGUUCUCAACUAUGACACGCAAAACGCGUGCUCCGUUGAAUGGAGUUUAUCAUG

Variants of: B1
Assay: polymerase ribozyme fitness, log enrichment relative to wild type (log ratio); higher = more active; in vitro selection for triplet polymerase activity
Outline: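 A single round of triplicate in vitro selection, including frozen incubation at −7 °C, was applied to PCR-built, transcribed mutant libraries of each subunit of a heterodimeric triplet polymerase ribozyme. Illumina sequencing of input and output libraries retained genotypes with ≥10 input reads and ≥1 read per output. Fitness is the base-2 logarithm of genotype enrichment divided by wild-type enrichment, from inverse-variance-weighted replicate averages.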

Variant | polymerase ribozyme fitness (log ratio)
GGAUCUUCUCGAUCUAACAAAAAAGACAAAUCUGCCACAAAGCUUGAGAGCAUCUUCGGAAGCAGAGGCGGUAGCCUUCGGUGGCGCGAUAGCGCCAACGUUCUCAACUAUGACACGCAAAACGCGUGCUCCGUUGAAUGGAGUUUAUCAUG [U61A C72U] | -3.66
GGAUCUUCUCGAUCUAACAAAAAAGACAAAUCUGCCACAAAGCUUGAGAGCAUCUUCGGAAGCAGAGGCGGCAGCCUUCGGUGGCGUGAUAGCGCCAACGUCGUCAACUAUGACACGCAAAACGCGUGCCCCGUUGAAUGGAGUUUAUCAUG [U61A C87U U102C C103G U130C] | ≤ -4.2
GGAUCUUCUCGAUCUAACAAAAAAGACAAAUCUGCCACAAAGCUUGAGAGCAUCUUCGGAAGUAGAGGCGGCAGCCUUCGGUGGCGCGAUAGCGCCAACGUUCUCAACUAUGACACGCAAAACGCGUGCUCCUUUGAAUGGAGUUUAUCAUG [U61A C63U G133U] | ≤ -4.2
GGAUCUUCUCGAUCUAACAAAAAAGACAAAUCUGCCACAAAGCUUGAGAGCAUCUUCGGAAGCAGAGGCGGCAGCCUUCGGUGGCGCGAUAGCGCCAACGUUCUCAACUAUGACACGCAAAGCGCGUGCUCCGUUGAAUCGAGUUUAUCAUG [U61A A122G G140C] | ≤ -4.2
GGAUCUUCUCGAUCUAACAAAAAAGACAAAUCUGCCACAAAGCUUGAGAGCAUCUUCGGAAGCAGAGGCGGCAGCCUUGGGCGGCGCGAUAGCGCCAACGUUCUCAACUAUGACACGCAAAACGCGUGCUCGGUUGAAUGGAGUUUAUCAUG [U61A C79G U82C C132G] | ≤ -4.2
GGAUCUUCUCGAUCUAACAAAAAAGACAAAUCUGCCACAAAGCUUGAGAGCAUCUUCGGAAGCAGAGGCGGCAGCCUUCGGUGGCGUGAUAGCGCCAACGUUCUCAACUAUGACACGCAAAACGCGUGCUCCGUUGAAUGGAGUUUAUCAUG [U61A C87U] | -2.83
GGAUCUUCUCGAUCUAACAAAAAAGACAAAUCUGCCACAAAGCUUGAGAGCAUCUUCGGAAGCAGAGGCGGCAGGCUUCGGUGGCGCGAUAGCGCCAACGUUCUCAACUAUGACACGCAAAACGCGUGCUCCGUUGAAUGGAGUUUAUCAUG [U61A C75G] | -3.89
GGAUCUUCUCGAUCUAACAAAAAAGACAAAUCUGCCACAAAGCUUGAGAGCAUCUUCGGAAGCAGAGGCGGCAGCCUUCGGUGGCGCGAUAGCGCCAACGUUCUCAACUAUGACACGCAAAACGCGUGCUCCGUUGAAUGGGGUUUAUCAUG [U61A A142G] | -1.25
GGAUCUUCUCGAUCUAACAAAAAAGACAAAUCUGCCACAAAGCUUGAGAGCAUCUUCGGAAGCAGUGGCGGCAGCCUUCGGCGGCGCGAUACCGGCAACGUUCUCAACUAUGACACGCAAAACGCGUGCUCCGUUGAAUGGAGUUUAUCAUG [U61A A66U U82C G92C C95G] | ≤ -4.2
GGAUCUUCUCGAUCUAACAAAAAAGACAAAUCUGCCACAAAGCUUGAGAGCAUCUUCGGUUGCAGAGGCGGCAGCCAUCGGUGGCGCGAUAGCGCCAACGUUCUCAACUAUGACACGCAAAACGCGUGCUCCGUUGAAUGGAGUUUAUCAUG [A60U U77A] | ≤ -4.2
GGAUCUUCUCGAUCUAACAAAAAAGACAAAUCUGCCACAAAGCUUGAGAGCAUCUUCGGAAGCAGAGGCGGCAGCCUUCGGUGGCGCGUUAGCGCCAACGUUCUCAACUAUGACACGCAAAACGCGUGCUCCGUUGAAUGGAGUUUAUCAUG [U61A A89U] | -0.941
GGAUCUUCUCGAUCUAACAAAAAAGACAAAUCUGCCACAAAGCUUGAGAGCAUCUUCGGAAGCAGAGGCGGCAGCCUUCGGUGGUGCGAUAGCGCCCACGUUCUCAACUAUGACACGCAGAACGCGUGCUCCGUUGAAUGGAGUUUAUCAUG [U61A C85U A97C A120G] | -3.26
GGAUCUUCUCGAUCUAACAAAAAAGACAAAUCUGCCACAAAGCUUGAGAGCAUCUUCGGAAGCAGAGGCGGCCGCCUUCGGUGGCGCGAUAGCGCCAACGUUCUCAACUAUGACACGCAAAACGCGUGCUCCGUUGAAUGGAGUUUAUCAUG [U61A A73C] | -3.91
GGAUCUUCUCGAUCUAACAAAAAAGACAAAUCUGCCACAAAGCUUGAGAGCAUCUUCGGAAGCAGAGGCGGCGGCCUUCGGUGGCGCGAUAGCGCCAACGUUCUCAACUAUGACACGCAAAACGCGUGCUCCGUUGAAUGGAGUUUAUCAUG [U61A A73G] | -1.42
GGAUCUUCUCGAUCUAACAAAAAAGACAAAUCUGCCACAAAGCUUGAGAGCAUCUUCGGAAGCAGCGGCGGCAACCUUCGGUGGCGCGAGGGCGCCAACGUUCUCAACUAUGACACGCAAAACGCGUGCUCCUUUGACUGGAGUUUAUCAUG [U61A A66C G74A U90G A91G G133U A138C] | ≤ -4.2
GGAUCUUCUCGAUCUAACAAAAAAGACAAAUCUGCCACAAAGCUUGAGAGCAUCUUCGGAAGCAGAGGCGGCAGCCUUCGGUGGCGCGAUAGCGCCGACGUUCUCAACUAUGACACGCAAAACGCGUGCUCCGUUAAAUGGAGUUUAUCAUG [U61A A97G G136A] | -0.653
GGAUCUUCUCGAUCUAACAAAAAAGACAAAUCUGCCACAAAGCUUGAGAGCAUCUUCGGUUGCAGAGGCGGCAGCCUUCGGUGGCGCGAUAGCGCCAACGUUCUCAACUAUGACACGCAAAACGCGGGCUCCGUUGAAUGGAGUUUAUCAUG [A60U U127G] | -3.08
GGAUCUUCUCGAUCUAACAAAAAAGACAAAUCUGCCACAAAGCUUGAGAGCAUCUUCGGAAGCAGAGGCGGCGGCCUUCUGUGGCGCGAUAGCGCCAACGUUCUCAACUAUGACACGCAAAACGCGUGCUCCGUUGAAUGGAGUUUAUCAUG [U61A A73G G80U] | ≤ -4.2
GGAUCUUCUCGAUCUAACAAAAAAGACAAAUCUGCCACAAAGCUUGAGAGCAUCUUCGGAAGCAGAGGAGGCAGCCUUCGGUGGAGCGAUAGCGCCAACGUUCUCAACUAUGACACGCAAAACGCGUGCUCCGUUGAAAGGAGUUUAUGAUG [U61A C69A C85A U139A C149G] | ≤ -4.2
